This is an account of results in paper PMC10786891, “Massively parallel profiling of RNA-targeting CRISPR-Cas13d”.

Sequences and labels used below:
T1: EsCas13d, nuclease-dead (Eubacterium siraeum, UniProt B0MS50, R295A;H300A;R849A;H854A)
T1 sequence: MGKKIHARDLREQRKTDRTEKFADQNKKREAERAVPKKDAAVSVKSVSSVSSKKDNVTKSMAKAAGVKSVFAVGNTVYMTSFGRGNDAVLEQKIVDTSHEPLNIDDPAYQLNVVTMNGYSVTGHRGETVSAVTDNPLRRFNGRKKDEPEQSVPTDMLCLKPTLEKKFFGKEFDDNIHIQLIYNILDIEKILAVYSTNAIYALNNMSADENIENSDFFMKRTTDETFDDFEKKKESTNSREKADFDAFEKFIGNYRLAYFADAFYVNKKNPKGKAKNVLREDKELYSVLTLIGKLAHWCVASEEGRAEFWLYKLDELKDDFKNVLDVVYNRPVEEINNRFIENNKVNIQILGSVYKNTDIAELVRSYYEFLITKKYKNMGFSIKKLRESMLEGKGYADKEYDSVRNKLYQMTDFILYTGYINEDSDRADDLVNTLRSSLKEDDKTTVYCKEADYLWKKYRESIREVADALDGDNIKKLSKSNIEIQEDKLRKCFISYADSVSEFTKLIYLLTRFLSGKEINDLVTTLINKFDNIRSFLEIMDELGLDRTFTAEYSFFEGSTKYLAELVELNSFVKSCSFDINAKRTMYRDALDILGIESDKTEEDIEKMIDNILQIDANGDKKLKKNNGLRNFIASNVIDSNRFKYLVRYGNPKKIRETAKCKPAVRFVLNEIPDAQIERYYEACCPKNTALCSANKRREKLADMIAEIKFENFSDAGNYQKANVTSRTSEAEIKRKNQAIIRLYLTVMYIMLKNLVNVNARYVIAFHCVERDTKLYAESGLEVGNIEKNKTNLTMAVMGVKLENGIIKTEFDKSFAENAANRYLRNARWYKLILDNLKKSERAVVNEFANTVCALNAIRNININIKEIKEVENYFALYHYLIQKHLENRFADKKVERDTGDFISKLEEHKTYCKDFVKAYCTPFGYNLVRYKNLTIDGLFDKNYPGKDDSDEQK

B1: target 1 U11G,U19C (mixed)
RNA 1: CACCCGUGCAAAAAUGCAGGGGUCUAAAACUGAGCGGAUAACCUCUCUAUGG
RNA 2: GGGAAUGGAUCCACAUCUACGAAUUCGUACCACAGAGAGGGUAUCCGCUCACCGAGAUCGGAAGAGCACACGU
B2: target 1 insC 3' of 11,insC 3' of 5 (mixed)
RNA 1: B1 RNA 1
RNA 2: GGGAAUGGAUCCACAUCUACGAAUUCGUACCAUAGAGAGGUCUAUCCGCCUCACCGAGAUCGGAAGAGCACACGU
B3: target 1 insG 3' of 11,insG 3' of 8 (mixed)
RNA 1: B1 RNA 1
RNA 2: B2 RNA 2 with C42G, C46G, G48C, C49G
B4: target 1 insG 3' of 19,insA 3' of 2 (mixed)
RNA 1: B1 RNA 1
RNA 2: GGGAAUGGAUCCACAUCUACGAAUUCGUACCAUGAGAGAGGUUAUCCGCUCAACCGAGAUCGGAAGAGCACACGU
B5: target 1 insA 3' of 22,insC 3' of 19 (mixed)
RNA 1: B1 RNA 1
RNA 2: GGGAAUGGAUCCACAUCUACGAAUUCGUACACAUCAGAGAGGUUAUCCGCUCACCGAGAUCGGAAGAGCACACGU
B6: target 1 insC 3' of 15,insG 3' of 1 (mixed)
RNA 1: B1 RNA 1
RNA 2: B4 RNA 2 with G34A, A35G, G36A, A37G, G38C, A53G
B7: target 1 insU 3' of 22,insA 3' of 13 (mixed)
RNA 1: B1 RNA 1
RNA 2: B5 RNA 2 with A31U, C35A, A36G, G37A, A38G, G39A, A40G, G41A
B8: target 1 insA 3' of 11,insG 3' of 6 (mixed)
RNA 1: B1 RNA 1
RNA 2: B2 RNA 2 with C42A, C49G
B9: target 1 U8A,U10C (mixed)
RNA 1: B1 RNA 1
RNA 2: B1 RNA 2 with C33U, G41U, U42C, U44A
B10: target 1 insC 3' of 20,insA 3' of 11 (mixed)
RNA 1: B1 RNA 1
RNA 2: GGGAAUGGAUCCACAUCUACGAAUUCGUACCACUAGAGAGGUAUAUCCGCUCACCGAGAUCGGAAGAGCACACGU
B11: target 1 insC 3' of 12,insU 3' of 7 (mixed)
RNA 1: B1 RNA 1
RNA 2: B2 RNA 2 with U41C, C42U, C47U, G48C, C49G
B12: target 1 C6G,A16C (mixed)
RNA 1: B1 RNA 1
RNA 2: B1 RNA 2 with C33U, A36C, G41U, C46G
B13: target 1 A1U,U10G (mixed)
RNA 1: B1 RNA 1
RNA 2: B1 RNA 2 with C33U, G41U, U42G, A51U
B14: target 1 insG 3' of 4,insU 3' of 2 (mixed)
RNA 1: B1 RNA 1
RNA 2: GGGAAUGGAUCCACAUCUACGAAUUCGUACCAUAGAGAGGUUAUCCGCGUCUACCGAGAUCGGAAGAGCACACGU
B15: target 1 insG 3' of 19,insU 3' of 1 (mixed)
RNA 1: B1 RNA 1
RNA 2: B4 RNA 2 with A53U
B16: target 1 U10C,G17C (mixed)
RNA 1: B1 RNA 1
RNA 2: B1 RNA 2 with C33U, G35C, G41U, U42C
B17: target 1 insA 3' of 6,insA 3' of 4 (mixed)
RNA 1: B1 RNA 1
RNA 2: B2 RNA 2 with C42U, U43A, A44U, U45C, C47A, C50A
B18: target 1 insG 3' of 19,insC 3' of 1 (mixed)
RNA 1: B1 RNA 1
RNA 2: B4 RNA 2 with A53C
B19: target 1 insU 3' of 21,insU 3' of 20 (mixed)
RNA 1: B1 RNA 1
RNA 2: B5 RNA 2 with A31C, C32U, C35U
B20: target 1 U11G,A18U (mixed)
RNA 1: B1 RNA 1
RNA 2: B1 RNA 2 with C33U, A34U
B21: target 1 G13A,A16C (mixed)
RNA 1: B1 RNA 1
RNA 2: B1 RNA 2 with C33U, A36C, G39A, G41U
B22: target 1 insU 3' of 7 (mixed)
RNA 1: B1 RNA 1
RNA 2: GGGAAUGGAUCCACAUCUACGAAUUCGUACCAUAGAGAGGUUAUCUCGCUCACCGAGAUCGGAAGAGCACACGU
B23: target 1 insG 3' of 19,insG 3' of 1 (mixed)
RNA 1: B1 RNA 1
RNA 2: B4 RNA 2 with A53G
B24: target 1 insG 3' of 18,insU 3' of 15 (mixed)
RNA 1: B1 RNA 1
RNA 2: B10 RNA 2 with C33U, U34A, A35G, A39U, G40A, U42G, A43U
B25: target 1 insA 3' of 11,insA 3' of 4 (mixed)
RNA 1: B1 RNA 1
RNA 2: B2 RNA 2 with C42A, C50A
B26: target 1 insA 3' of 6,insC 3' of 3 (mixed)
RNA 1: B1 RNA 1
RNA 2: B14 RNA 2 with G47A, C48G, G49C, U52C
B27: target 1 A1G,G5A (mixed)
RNA 1: B1 RNA 1
RNA 2: B1 RNA 2 with C33U, G41U, G47A, A51G
B28: target 1 G12U,A14C (mixed)
RNA 1: B1 RNA 1
RNA 2: B1 RNA 2 with C33U, A38C, G40U, G41U
B29: target 1 C6G,A9C (mixed)
RNA 1: B1 RNA 1
RNA 2: B1 RNA 2 with C33U, G41U, A43C, C46G
B30: target 1 C4G,G5U (mixed)
RNA 1: B1 RNA 1
RNA 2: B1 RNA 2 with C33U, G41U, G47U, C48G
B31: target 1 C2A,A18U (mixed)
RNA 1: B1 RNA 1
RNA 2: B1 RNA 2 with C33U, A34U, G41U, C50A

As a reminder, the Kd is the concentration at which binding is half-saturated. Low readings indicate higher affinity, high ones lower affinity.

Where a chain is given by its changes, count along the chain named. In names and notes the source's numbering stands.

The target in this data set is T1, EsCas13d, nuclease-dead. Kind of data set: crRNA (strand 1, pre-loaded); Mg2+; 40 mM Tris-HCl pH 7.5, 150 mM NaCl, 6 mM MgCl2, 1 mM DTT, 0.1% Tween-20, 0.2 mg/ml BSA; 25 C; 10 min per concentration, then washed. The conditions noted are these: tags: His6-TwinStrep-SUMO cleaved; N-terminal SNAP kept (SNAP-Surface 488); label: 3' end held by stalled T7 RNA polymerase.
Molecule B1 displayed a Kd of 86 ± 18 nM. With B2, the Kd worked out at 18.2 ± 1.4 nM. For the molecule B3, the Kd was 33.3 ± 1.5 nM. Compared with the last molecule, the Kd is about 1.8-fold higher. The figure for B4 is 85 ± 26 nM; for B5 it is 51 ± 7 nM.

Molecule B6 returned a Kd of 16.7 ± 1.3 nM.

Turning to B7, binding was characterised by a dissociation constant (Kd) of 17.1 ± 1.9 nM. B8: binding was characterised by a dissociation constant (Kd) of 15.7 ± 1.1 nM. In turn, B9 came in with a Kd of 19.2 ± 1.2 nM. The figure for B10 is 11.9 ± 0.7 nM.

B11 came in with a Kd of 26.9 ± 1.9 nM. Regarding B12, the Kd worked out at 42.2 ± 1.8 nM. As to B13, the Kd was found to be 26.4 ± 2.4 nM. The figure for B14 is 8.5 ± 0.4 nM. B15 returned a Kd of 63 ± 16 nM. The result for B16 reads 63 ± 19 nM; that for B17, 28.5 ± 2.8 nM; that for B18, 59 ± 7 nM.

B19 gave a Kd of 27.8 ± 3.3 nM. Turning to B20, the Kd was 100 ± 25 nM. The figure for B21 is 28.8 ± 1.6 nM; for B22 it is 14.8 ± 1.2 nM. The molecule B23 gave a Kd of 87 ± 26 nM. Compared with the last molecule, the Kd is about 5.9-fold higher. B24: binding was put at a Kd of 70 ± 17 nM. On to B25, for which binding was characterised by a dissociation constant (Kd) of 9.6 ± 0.6 nM. The figure for B26 is 20 ± 1.3 nM. For B27, the Kd worked out at 35 ± 4 nM. This Kd is about 1.8-fold higher than that of the molecule before.

On to B28, for which the affinity, expressed as Kd, was 42 ± 6 nM. In turn, B29 had a Kd of 11.7 ± 0.6 nM. The result for B30 reads 34.2 ± 2.7 nM; that for B31, 24.2 ± 1.2 nM.
